B2: human recombinant mesothelin (MSLN), residues 296-606, His tag (domain or fragment, UniProt Q13421 296-606, looked up)
chain: EVEKTACPSGKKAREIDESLIFYKKWELEACVDAALLATQMDRVNAIPFTYEQLDVLKHKLDELYPQGYPESVIQHLGYLFLKMSPEDIRKWNVTSLETLKALLEVNKGHEMSPQVATLIDRFVKGRGQLDKDTLDTLTAFYPGYLCSLSPEELSSVPPSSIWAVRPQDLDTCDPRQLDVLYPKARLAFQNMNGSEYFVKIQSFLGGAPTEDLKALSQQNVSMDLATFMKLRTDAVLPLTVAEVQKLLGPHVEGLKAEERHRPVRDWILRQRQDDLDTLGLGLQGGIPNGYLVLDLSMQEALSGTPCLLGP

How the values were obtained:
[1] = molecular target: B2; test: ELISA
[2] = molecular target: B2; test: SPR
mouse MSLN = mouse MSLN (Mus musculus, UniProt Q61468); test: ELISA
VH-Fc 3C9-YF750 = VH-Fc 3C9-YF750 (human); test: ELISA
[3] = molecular target: VH-Fc 3C9 (VH 3C9 fused with human IgG1 Fc, bivalent) (human); test: SPR

Chain of mouse MSLN (Q61468 36-600): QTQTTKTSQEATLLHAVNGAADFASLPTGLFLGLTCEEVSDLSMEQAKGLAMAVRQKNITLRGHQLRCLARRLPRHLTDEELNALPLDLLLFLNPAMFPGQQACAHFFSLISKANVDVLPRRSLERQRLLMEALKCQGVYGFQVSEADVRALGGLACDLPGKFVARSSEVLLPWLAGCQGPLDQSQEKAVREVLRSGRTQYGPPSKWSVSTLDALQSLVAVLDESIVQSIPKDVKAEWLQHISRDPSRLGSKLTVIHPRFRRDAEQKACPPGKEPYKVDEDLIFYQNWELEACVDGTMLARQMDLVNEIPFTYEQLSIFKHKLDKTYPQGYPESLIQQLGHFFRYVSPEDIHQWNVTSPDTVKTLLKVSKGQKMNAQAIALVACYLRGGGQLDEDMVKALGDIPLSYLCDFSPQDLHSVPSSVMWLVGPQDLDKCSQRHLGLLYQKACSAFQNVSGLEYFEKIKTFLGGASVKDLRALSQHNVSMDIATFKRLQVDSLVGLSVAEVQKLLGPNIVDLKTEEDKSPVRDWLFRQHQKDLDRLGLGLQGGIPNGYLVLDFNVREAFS

B1: VH 3C9 (human antibody heavy chain variable domain) (VHH)
VHH: DVQLVESGGGVVQPGRSLRLSCAASGFTFSSYAMHWVRQAPGKGLEWVSSISGNSLYKYYADSVKGRFTISRDDSTNTLYLQMNSLRAEDTATYYCTRHWAVGNWGQGTLVTVSS
EC50 [1]: < 10 nM | Kd [2]: < 3 nM | binding result (mouse MSLN): no binding

B2
binding result (VH-Fc 3C9-YF750): binds | Kd [3]: 7 nM
